The target of the experiment is recombinant human IFNγ (human) (UniProt P01579). Nature of the experiment: cell-based or functional assay.

The results in this text go back to US20100158922A1.

recombinant human IFNγ (human), sequence (P01579 24-166 limits assumed): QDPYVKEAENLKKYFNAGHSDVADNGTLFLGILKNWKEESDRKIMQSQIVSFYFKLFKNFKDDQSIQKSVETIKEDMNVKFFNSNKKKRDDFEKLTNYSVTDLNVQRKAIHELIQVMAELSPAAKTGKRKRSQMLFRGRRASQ

B1: AC1.2R3P7_D3 scFv (scFv, part only; not given: scFv linker, part only)
scFv, part: EVQLLESGGGLVQPGGSLKLSCAASGFTFSSNAMSWVRQAPGKGLEWVSTLTGSGGTAYYADSVEGRFSISRDNSKNTLYLQMNSLRAEDTAVYYCAKGTELVGGGLDNWGQGTLVTVSSNFMLTQPHSLSESPGKTVTISCTGSGGSIATNYVQWYQQRPGSAPTTVIHEDNQRPSGVPDRFSGSIDGSSNSASLTISGLQPEDEADYYCQSYDSDNHHVVFGGGTKLTVLG
B1: the Percentage inhibition of IFNγ-induced reporter gene expression at 0.011 nM scFv worked out at 20%, the Percentage inhibition of IFNγ-induced reporter gene expression at 0.043 nM scFv was 28%, the Percentage inhibition of IFNγ-induced reporter gene expression at 0.17 nM scFv stood at 36% and the Percentage inhibition of IFNγ-induced reporter gene expression at 0.68 nM scFv amounted to 55%. The Percentage inhibition of IFNγ-induced reporter gene expression at 2.7 nM scFv amounted to 69%.
